Legend:
[1] = molecular target: T1, DLL3 targeting trispecific protein containing 52D04, anti-DLL3:anti-ALB:anti-CD3 (TAC) configuration; assay: flow cytometry on NCI-H82, SHP77, DMS53, NCI-H2171 cells
T1 construct: also called DLL3-targeting TriTAC

[2] = molecular target: T2, DLL3 targeting trispecific protein containing 52D04, anti-CD3:anti-ALB:anti-DLL3 (CAT) configuration; assay: as above
T2 construct: also called DLL3-targeting TriTAC
T2 sequence (chain, as listed by the source): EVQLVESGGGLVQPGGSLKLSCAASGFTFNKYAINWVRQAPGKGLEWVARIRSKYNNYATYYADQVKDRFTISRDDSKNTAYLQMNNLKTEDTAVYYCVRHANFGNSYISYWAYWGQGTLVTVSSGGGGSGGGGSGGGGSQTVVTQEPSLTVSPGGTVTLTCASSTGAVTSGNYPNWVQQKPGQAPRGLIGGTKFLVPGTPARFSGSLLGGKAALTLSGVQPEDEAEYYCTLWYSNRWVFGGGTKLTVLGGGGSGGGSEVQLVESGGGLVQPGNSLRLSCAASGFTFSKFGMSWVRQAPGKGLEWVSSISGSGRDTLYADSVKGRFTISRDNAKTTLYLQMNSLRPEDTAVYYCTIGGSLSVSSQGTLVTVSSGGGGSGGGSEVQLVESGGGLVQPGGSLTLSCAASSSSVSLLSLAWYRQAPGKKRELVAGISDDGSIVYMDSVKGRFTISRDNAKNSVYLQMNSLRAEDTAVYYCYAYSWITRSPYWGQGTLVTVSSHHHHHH

T1 sequence (chain, as listed by the source): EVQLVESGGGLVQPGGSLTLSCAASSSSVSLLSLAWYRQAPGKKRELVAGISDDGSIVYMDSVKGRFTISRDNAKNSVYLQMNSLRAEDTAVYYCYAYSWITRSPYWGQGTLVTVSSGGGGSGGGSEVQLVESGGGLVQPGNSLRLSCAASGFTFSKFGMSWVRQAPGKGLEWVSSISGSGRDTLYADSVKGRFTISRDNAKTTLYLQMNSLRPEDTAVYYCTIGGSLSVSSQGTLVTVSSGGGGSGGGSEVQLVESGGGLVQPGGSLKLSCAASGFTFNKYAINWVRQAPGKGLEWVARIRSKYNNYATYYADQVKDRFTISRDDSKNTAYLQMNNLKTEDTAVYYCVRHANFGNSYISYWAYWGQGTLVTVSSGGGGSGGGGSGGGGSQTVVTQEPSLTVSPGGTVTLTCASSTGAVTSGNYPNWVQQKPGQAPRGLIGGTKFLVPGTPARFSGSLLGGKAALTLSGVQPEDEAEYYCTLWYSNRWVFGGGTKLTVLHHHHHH

B1: human DLL3 on DLL3-expressing tumor cell lines (ligand)
chain: AGVFELQIHSFGPGPGPGAPRSPCSARLPCRLFFRVCLKPGLSEEAAESPCALGAALSARGPVYTEQPGAPAPDLPLPDGLLQVPFRDAWPGTFSFIIETWREELGDQIGGPAWSLLARVAGRRRLAAGGPWARDIQRAGAWELRFSYRARCEPPAVGTACTRLCRPRSAPSRCGPGLRPCAPLEDECEAPLVCRAGCSPEHGFCEQPGECRCLEGWTGPLCTVPVSTSSCLSPRGPSSATTGCLVPGPGPCDGNPCANGGSCSETPRSFECTCPRGFYGLRCEVSGVTCADGPCFNGGLCVGGADPDSAYICHCPPGFQGSNCEKRVDRCSLQPCRNGGLCLDLGHALRCRCRAGFAGPRCEHDLDDCAGRACANGGTCVEGGGAHRCSCALGFGGRDCRERADPCAARPCAHGGRCYAHFSGLVCACAPGYMGARCEFPVHPDGASALPAAPPGLRPGDPQRYLLPPALGLLVAAGVAGAALLLVHVRRRGHSQDAGSRLLAGTPEPSVHALPDALNNLRTQEGSGDGPSSSVDWNRPEDVDPQGIYVISAPSIYAREVATPLFPPLHTGRAGQRQHLLFPYPSSILSVK
notes: endogenous DLL3 of human cancer cell lines
binding result [1]: binds
binding result [2]: binds
